In patent US20060115870:

Biological target: T1, Long S6 substrate peptide (32 amino-acid)
T1 chain: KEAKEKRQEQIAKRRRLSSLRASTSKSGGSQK

B1: Human recombinant Rho kinase (ROKα/ROCK-II, amino acids 11-552), human active, catalog #14-451, Upstate USA, Inc. (protein)
chain: PGAPETAPGDGAGASRQRKLEALIRDPRSPINVESLLDGLNSLVLDLDFPALRKNKNIDNFLNRYEKIVKKIRGLQMKAEDYDVVKVIGRGAFGEVQLVRHKASQKVYAMKLLSKFEMIKRSDSAFFWEERDIMAFANSPWVVQLFYAFQDDRYLYMVMEYMPGGDLVNLMSNYDVPEKWAKFYTAEVVLALDAIHSMGLIHRDVKPDNMLLDKHGHLKLADFGTCMKMDETGMVHCDTAVGTPDYISPEVLKSQGGDGFYGRECDWWSVGVFLYEMLVGDTPFYADSLVGTYSKIMDHKNSLCFPEDAEISKHAKNLICAFLTDREVRLGRNGVEEIRQHPFFKNDQWHWDNIRETAAPVVPELSSDIDSSNFDDIEDDKGDVETFPIPKAFVGNQLPFIGFTYYRENLLLSDSPSCRENDSIQSRKNEESQEIQKKLYTLEEHLSNEMQAKEELEQKCKSVNTRLEKTAKELEEEITLRKSVESALRQLEREKALLQHKNAEYQRKADHEADKKRNLENDVNSLKDQLEDLKKRNQNSQI
Maximum DPMs found in phosphorylated substrate (i.e. product): 52,557±2,058 (n=14) (0.22% of total added DPMs) | Net fold phosphorylation of substrate (33P incorporation, filter mat kinase assay): 4.4-fold above basal blanks (n=14 experiments; 42 separate assay determinations)
